Experimental data reported in the supplement of paper PMC10567573.

B1: ZNF449 (parent)
chain: HKKKSPGEKPHRCPQCGKCFARKS
B2: ZNF263 (parent)
chain: QPKKLHLCPLCGKNFSNNSNLIRH

Variants of: B1
Assay: protein stability index of a GFP-peptide fusion (GPS, HEK-293T) (PSI 1-6); higher = more stable
Settings: c terminus: a fixed tail appended
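Further: lentivirally expressed fusions sorted by FACS into six bins by GFP to DsRed ratio, PSI derived from sequencing read proportions per bin multiplied by bin number.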

Protein stability index of substitutions, site by site:
C19: I 4.05 | M 2.54 | H 4.35 | Y 3.99 | T 3.44 | D 3.66 | F 3.48 | N 3.79 | V 3.41 | A 3.36
F20: S 3.63 | D 4.04 | P 1.49 | N 5.19 | R 3.96 | I 4.38 | A 3.64 | Y 3.67 | H 4.62 | E 4.11 | L 4.18 | V 3.97
G17: N 3.75 | Q 3.66 | W 3.41 | Y 3.6
A21: K 3.99 | L 3.26 | I 2.92 | Y 3.27 | T 3.69 | V 4.04 | D 3.51 | C 2.66
S24: V 1.78 | P 3.76 | C 3.82 | W 2 | K 3.99 | T 3.8 | F 1.99 | I 3.32 | D 3.97
R22: Q 3.78 | K 3.83 | G 3.46 | M 3.33 | T 4.06 | H 3.83 | V 3.15 | N 3.45 | S 2.92 | D 3.82 | L 3.64
K18: N 3.87 | L 3.13 | V 2.9 | F 5.18 | I 2.52 | S 2.94 | W 2.5 | P 2.97 | H 4.25 | C 3.29 | D 2.17
K23: R 3.3 | W 2.68 | E 2.5 | L 2.04 | S 2.03 | D 3.57 | P 2.43 | F 1.75 | I 2.09 | G 3.12 | N 2.72 | Y 3.12

Variants of: B2
Assay: as above
Settings: c terminus: a fixed tail appended

Protein stability index of substitutions, site by site:
L7: E 2.28 | Y 3.02 | D 2.1 | A 2.69 | P 2.07 | Q 2.85 | G 2.08 | C 2.3 | M 2.59 | F 2.78 | W 2.38
K13: T 2.15 | D 1.67 | S 2.41 | V 2 | C 2.47 | R 2.53 | F 2.51 | L 2.21 | I 1.89 | G 2.24 | H 2.62
P9: I 1.89 | R 2.25 | F 1.93 | L 2.21 | T 2.66 | Q 2.67 | G 2.26 | C 2.3 | D 2.56
L21: S 2.19 | F 2.32 | C 3.13 | T 2.56 | V 2.85 | Q 2.38 | M 2.48 | P 1.93 | D 2.72 | Y 2.12 | E 2.92 | W 2.44
N17: W 2.15 | V 2.18 | A 2.69 | E 2.33 | D 2.48 | T 2.91 | G 2.09 | F 2.06 | L 2.58
S16: N 2.38 | D 2.72 | K 2.56 | H 2.42 | A 2.4 | L 2.34 | R 2.17 | P 2.49 | M 2.96 | G 3.42
L5: Q 2.54 | M 2.71 | G 2.54 | H 2.64 | Y 2.18 | W 2.74 | E 2.64 | F 1.81 | A 2.53 | P 2.09
N20: L 3.05 | H 2.69 | V 2.04 | I 1.94 | C 3.21 | S 3.09 | R 2.01
C8: L 1.97 | K 2.46 | E 3.1 | N 3 | Y 1.82 | S 2.41 | M 3.22 | I 2.61 | T 3.03 | F 2.05 | V 3.15
H24: L 2.24 | R 2.07 | N 2.22 | S 2.4 | P 2.56 | W 2.38 | T 2.35 | M 2.31 | K 2.64 | I 2.08 | D 2.11 | V 2.27
N14: G 2.63 | Y 2.57 | L 2.84 | W 3.51 | A 3.29 | C 3.93 | S 3.48 | F 2.69 | M 2.83 | K 2.94 | R 2.35 | V 3.04 | I 3.33
R23: F 2.42 | H 2.56 | V 2.33 | T 2.92 | I 1.91 | Q 2.77 | K 3.19 | M 2.52 | D 3.77 | Y 1.91 | L 2 | C 3
C11: S 2.74 | Y 1.68 | T 3.11 | Q 2.91 | L 2.41 | P 3.36 | M 2.07 | F 1.87 | D 3.58 | N 2.8 | H 2.88 | V 2.48 | K 2.62
Q1: W 2.26 | I 2.61 | G 2.33 | A 2.97 | K 2.64 | D 3.09 | C 2.69 | N 2.83 | P 2.43
G12: M 1.79 | D 2.11 | R 2.34 | V 2.36 | L 2.07 | N 2.45 | F 1.39 | W 1.94 | H 2.4
P2: L 1.81 | Q 2.47 | C 2.13 | M 2.27 | A 2.42 | R 2.06 | K 2.17 | H 1.68 | D 2.42 | G 2.22 | T 2.57
I22: A 2.8 | E 3.45 | L 2.93 | Q 3.09 | M 2.88 | C 4.04 | N 2.5 | K 2.33 | H 2.76 | R 2.76 | P 2.19 | T 2.35
N18: E 3.66 | L 3.11 | T 2.45 | A 2.97 | F 2.76 | R 3.36 | V 2.86 | D 2.8 | Q 3.17 | Y 3.22
F15: D 2.56 | E 2.07 | H 3.33 | S 2.19 | L 2 | P 2.22 | G 1.8 | V 1.82 | C 2.53 | I 2.36 | W 1.95 | T 1.95 | M 1.99
S19: F 2.54 | E 3.14 | C 3.3 | A 2.65 | Q 2.69 | R 2.5 | G 1.96 | N 2.89 | D 3.24 | Y 2.6 | V 2.43 | M 2.7 | K 3.37 | L 2.96
K4: Q 3.03 | L 2.97 | I 2.85 | R 1.88 | S 3.18 | N 2.92 | C 2.53
H6: A 2.02 | Y 2.88 | L 2.19 | T 3.08 | M 2.24 | Q 2.22 | K 2.81 | P 2.11 | V 2.12 | I 2.05 | G 2.39
K3: A 2.33 | E 2.8 | G 2.65 | T 2.17 | L 2.63 | S 2.56 | I 2.78 | H 2.82 | V 2.67 | P 2.62 | Y 2.05 | R 2.06 | C 2.32 | W 1.93
L10: F 3.03 | Y 2.53 | N 3.16 | C 4.03 | M 3.28 | T 2.84 | A 2.5
